Reference: patent US20080089892A1

Legend:
[1] = biological target: biotin-labeled soluble FcRn (Fc neonatal receptor); assay: ELISA, biotin-FcRn captured on Neutravidin plate, single-point IgG, pH 6.0
[2] = biological target: biotin-labeled soluble FcRn (Fc neonatal receptor); assay: ELISA, biotin-FcRn captured on Neutravidin plate, single-point IgG, pH 7.0
[3] = biological target: Human FcγRIIIa(158F) soluble extracellular domain with engineered 6-histidine tag (human) (UniProt P08637); assay: KinExA, 7.5 nM IgG equilibrated with titrated soluble FcγRIIIa(158F), free IgG captured on receptor beads
[4] = biological target: human Fc gamma RI receptor (CD64), extracellular portion with C-terminal 6-his tag; assay: ELISA: plate-coated human FcγRI (CD64) extracellular portion with 6-his tag; IgG titrated; bound IgG detected with anti-human kappa alkaline phosphatase conjugate, A560
Chain of human Fc gamma RI receptor (CD64), extracellular portion with C-terminal 6-his tag (chain, as listed by the source limits assumed): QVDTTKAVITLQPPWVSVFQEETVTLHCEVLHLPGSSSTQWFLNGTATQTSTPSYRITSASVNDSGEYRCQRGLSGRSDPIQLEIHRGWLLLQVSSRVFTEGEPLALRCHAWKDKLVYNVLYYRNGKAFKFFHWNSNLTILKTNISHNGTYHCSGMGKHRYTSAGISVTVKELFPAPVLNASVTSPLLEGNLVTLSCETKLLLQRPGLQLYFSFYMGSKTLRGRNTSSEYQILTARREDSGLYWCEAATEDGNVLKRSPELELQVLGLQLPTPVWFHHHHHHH

Chain of UniProt P08637 (P08637 other isoform, or with tags, fused parts or gaps): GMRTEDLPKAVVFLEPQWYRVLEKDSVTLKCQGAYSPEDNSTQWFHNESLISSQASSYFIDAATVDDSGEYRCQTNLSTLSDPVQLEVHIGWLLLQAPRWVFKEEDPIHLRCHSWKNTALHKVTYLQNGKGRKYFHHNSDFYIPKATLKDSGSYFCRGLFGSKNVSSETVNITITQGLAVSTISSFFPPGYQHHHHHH

Row | Substance | FcRn 6.0 (binding relative to parental) (% of parental (parental = 100)) [1] | FcRn 7.0 (binding relative to parental) (% of parental (parental = 100)) [2] | Kd [3] [nM] | EC50 (read off the curve) [4] [µg/mL]
1 | anti-CD20 IgG Fc variant P247L (antibody) | 92 | 78 |  | 
2 | anti-CD20 IgG Fc variant I332R (antibody) | 97 | 92 |  | 
3 | anti-CD20 IgG Fc variant L251F (antibody) | 102 | 100 |  | 
4 | anti-CD20 IgG Fc variant D280K (antibody) | 103 | 93 |  | 
5 | wild type (parental Fc) anti-CD20 IgG (antibody) | 100 | 100 | 387 | 
6 | anti-CD20 IgG Fc variant I332K (antibody) | 109 | 97 |  | 
7 | anti-CD20 IgG Fc variant H268D (antibody) | 87 | 84 |  | 
8 | anti-CD20 IgG Fc variant A330K (antibody) | 104 | 99 |  | 
9 | anti-CD20 IgG Fc variant I332E (AME-133: variable region 33 with the I332E Fc variant sequence) (antibody) | 99 | 97 | 52 | 2
10 | anti-CD20 IgG Fc variant A330R (antibody) | 77 | 101 |  | 
11 | anti-CD20 IgG Fc variant S440Y (antibody) | 106 | 102 |  | 
12 | anti-CD20 IgG Fc variant T256P (antibody) | 132 | 121 |  | 
13 | anti-CD20 IgG Fc variant I332D (antibody) | 91 | 102 |  | 

Results, then the substance that gave them:

Row | FcRn 6.0 (binding relative to parental) (% of parental (parental = 100)) [1] | FcRn 7.0 (binding relative to parental) (% of parental (parental = 100)) [2] | Kd [3] [nM] | EC50 (read off the curve) [4] [µg/mL] | Substance
14 | 79 | 73 |  |  | anti-CD20 IgG Fc variant P247H (antibody)
15 | 91 | 84 |  |  | anti-CD20 IgG Fc variant D280A (antibody)
16 | 115 | 109 |  |  | anti-CD20 IgG Fc variant A339T (antibody)
17 | 72 | 82 |  |  | anti-CD20 IgG Fc variant T256M (antibody)
18 | 122 | 93 |  |  | anti-CD20 IgG Fc variant A378D (antibody)
19 | 90 | 81 |  |  | anti-CD20 IgG Fc variant H268E (antibody)
20 | 89 | 74 |  |  | anti-CD20 IgG Fc variant P247I (antibody)
21 |  |  | 21 | 1 | anti-CD20 IgG combinatorial Fc variant (L256P, I332E) (antibody)
